We go through 18 molecules from article PMC10901556, “Conservation of Affinity Rather Than Sequence Underlies a Dynamic Evolution of the Motif-Mediated p53/MDM2 Interaction in Ray-Finned Fishes” (Molecular Biology and Evolution, 2024).

Where no end group is shown, it is not given here.

To fix the notation:
T1: MDM2_(D.rerio) SWIB domain (Danio rerio (zebrafish))
T1 chain: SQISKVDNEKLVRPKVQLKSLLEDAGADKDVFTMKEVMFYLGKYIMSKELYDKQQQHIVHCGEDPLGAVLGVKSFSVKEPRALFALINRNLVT

The first assay has as its target MDM2 SWIB domain from Maylandia zebra (Maylandia zebra). Kind of assay: fluorescence polarisation; displacement: complex of MDM2 (0.2-2 μM) and FITC-p53TAD_(human)^15–26 (15 nM) displaced by increasing unlabeled p53TAD peptide or p53TAD^full-length; KD calculated from IC50 (Nikolovska-Coleska et al. 2004); 20 mM sodium phosphate pH 7.4, 150 mM NaCl, 1 mM TCEP.
Settings: not given
On to Ac-SQDSFKELWDQLP [Maylandia zebra p53TADP1 p53TAD^15–27], for which the Kd was 1600 nM.

The next assay concerns the target MDM2 SWIB domain from Lepisosteus oculatus (spotted gar) (Lepisosteus oculatus (spotted gar)). Described as above.
Settings: not given
As for Ac-SQESFQELWNMVI [Lepisosteus oculatus (spotted gar) p53TAD^15–27], the Kd was 390 nM.

The target of a further assay is MDM2 SWIB domain from Oncorhynchus kisutch (coho salmon) (Oncorhynchus kisutch (coho salmon)). Described as above.
Settings: not given
In the case of Ac-SQESFEDLWKMNL [Oncorhynchus kisutch p53TADP2 p53TAD^15–27], the Kd is 1160 nM. Same read-out and setting: the result for Ac-SQGSFQQLWETNM [Oncorhynchus kisutch p53TADP1b p53TAD^15–27] reads 3500 nM; that for Ac-GQCSFQQLWESNM [Oncorhynchus kisutch (coho salmon) p53TADP1a p53TAD^15–27], 2100 nM.

The target of another assay is MDM2_(H.sapiens) SWIB domain (Homo sapiens (human)). The assay is described as above.
Settings: not given
For Ac-SQDSFKELWDQLP [Maylandia zebra p53TADP1 p53TAD^15–27], the Kd was 270 nM. The same measure, in the same setting: the same measure for Ac-SQESFQELWNMVI [Lepisosteus oculatus (spotted gar) p53TAD^15–27]: 121 nM; for Ac-SQDETFQALWNTVT [Anguilla anguilla p53TADP2 p53TAD^15–27]: 770 nM; for Ac-SQESFEDLWKMNL [Oncorhynchus kisutch p53TADP2 p53TAD^15–27]: 790 nM. The same measure, in the same setting: the result for Ac-SQDSFRELWESVV [Channa argus p53TADP1 p53TAD^15–27] reads 1100 nM. Regarding Ac-SQGSFQQLWETNM [Oncorhynchus kisutch p53TADP1b p53TAD^15–27], the Kd is 5150 nM. Still for that read-out and setting: the result for Ac-GQCSFQQLWESNM [Oncorhynchus kisutch (coho salmon) p53TADP1a p53TAD^15–27] reads 3150 nM; that for Ac-SQEFAELWEKNL [Danio rerio (zebrafish) p53TADP2 p53TAD^15–27], 4330 nM. The same measure, in the same setting: the result for Ac-SQESFQELWKMMC [Anguilla anguilla (European eel) p53TADP1 p53TAD^15–27] reads 13 nM; that for Ac-SQGTFDEIWASNF [Clupea harengus (Atlantic herring) p53TADP1 p53TAD^15–27], 1250 nM; that for Ac-SQDTFQDLWENVA [Takifugu rubripes (Japanese puffer) p53TADP1 p53TAD^15–27], 1700 nM.

The target in another assay is MDM2 SWIB domain from Channa argus (Channa argus). The description is as above.
Settings: not given
Consider Ac-SQDSFRELWESVV [Channa argus p53TADP1 p53TAD^15–27], for which the Kd is 3300 nM.

For the next assay, the target named is MDM2 SWIB domain from Clupea harengus (Atlantic herring) (Clupea harengus (Atlantic herring)). The assay is described as above.
Settings: not given
Consider Ac-SQGTFDEIWASNF [Clupea harengus (Atlantic herring) p53TADP1 p53TAD^15–27], for which the Kd was 2600 nM.

The next assay has as its target MDM2 SWIB domain from Takifugu rubripes (Japanese puffer) (Takifugu rubripes (Japanese puffer)). Described as above.
Settings: not given
As to Ac-SQDTFQDLWENVA [Takifugu rubripes (Japanese puffer) p53TADP1 p53TAD^15–27], the Kd was 4500 nM.

A further assay addresses MDM2 SWIB domain from Anguilla anguilla (European eel) (Anguilla anguilla (European eel)). The description is as above.
Settings: not given
With Ac-SQDETFQALWNTVT [Anguilla anguilla p53TADP2 p53TAD^15–27], the Kd was 1200 nM. With Ac-SQESFQELWKMMC [Anguilla anguilla (European eel) p53TADP1 p53TAD^15–27], the Kd is 190 nM.

In the next assay the target is T1, MDM2_(D.rerio) SWIB domain (Danio rerio …). The experiment in a line: FP. The following applies: modification not given.
Take DSQEFAELWEKN [p53TAD_(D.rerio)^14-26]: the Kd is > 200000 nM.

For the molecule QNDSQEFAELWEKNLISIQPPGGGSCWDIINDEEYLPGSFDPN [p53TAD_(D.rerio)^12-55], the Kd was determined as 33 nM.

As to PGSFDPNFFENVLEE [p53TAD_(D.rerio)^49-63], the Kd worked out at 210000 nM. For the molecule IINDEEYLPGSFDPN [p53TAD_(D.rerio)^41-55], the Kd is > 200000 nM. Consider GGSCWDIINDEEYLP [p53TAD_(D.rerio)^35-49], for which the Kd was > 200000 nM. As for ELWEKNLISIQPPGG [p53TAD_(D.rerio)^21-35], the Kd is > 200000 nM.

In the case of IQPPGGGSCWDIIND [p53TAD_(D.rerio)^30-44], the Kd was > 200000 nM.
